# Reference: article PMC10273338
# T1: HspB8, Q9UJY1
# T1 chain: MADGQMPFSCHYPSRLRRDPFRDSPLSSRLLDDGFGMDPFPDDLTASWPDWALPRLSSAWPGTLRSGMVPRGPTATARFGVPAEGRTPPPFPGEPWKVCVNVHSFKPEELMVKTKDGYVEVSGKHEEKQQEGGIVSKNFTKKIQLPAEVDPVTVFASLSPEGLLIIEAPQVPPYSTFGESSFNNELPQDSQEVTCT
# B1: HspB8, Q9UJY1 1-196 (natural protein)
# chain: T1 chain
# Biological target: T1, HspB8, Q9UJY1
# Assay: SPR; BIACORE X; HspB8 amine-coupled to a CM5 chip (7400 RU); running buffer 10 mM HEPES pH 7.4, 150 mM NaCl, 3 mM EDTA, 0.005% P20; 10 uL/min; Langmuir 1:1 fit
# Conditions: remark: other sources report otherwise
binder,measurement,value
B1,Ka,5.2e+06 M⁻¹
same,Kd,190 nM
same,koff,0.00048 s⁻¹
same,kon,2500 M⁻¹ s⁻¹
